Consider 3 substances from patent publication US20150132859A1.

Assay [1] deals with EcSS-TpN17-Bi(DDS) (Treponema pallidum (TpN17 part); E. coli (SlyD part)). Briefly: DAGS ECL; detection PmSS-TpN17-Ru; competitor EcSkp-VcLp15 1.0 ug/ml in R1.
Assay [2] shares this target. Briefly: DAGS ECL; detection PmSS-TpN17-Ru; competitor EcSlyD-VcLp15 0.1 ug/ml in R1.
The target in assay [3] is EcFkpA-TpN17-Bi(DDS) (Treponema pallidum (TpN17 part); E. coli (FkpA part)). Briefly: DAGS ECL; detection EcSkp-TpN17-Ru; competitor EcSlyD-VcLp15 0.5 ug/ml in R1.
For assay [4], the target named is EcSS-TpN17-Bi(DDS) (Treponema pallidum (TpN17 part); E. coli (SlyD part)). Briefly: DAGS ECL; detection PmSS-TpN17-Ru; competitor EcSlyD-VcLp15 1.0 ug/ml in R1.
Assay [5] shares this target. Kind of assay: DAGS ECL; detection PmSS-TpN17-Ru; competitor EcSlyD-VcLp15 0.5 ug/ml in R1.
Assay [6] concerns the target EcFkpA-TpN17-Bi(DDS) (Treponema pallidum (TpN17 part); E. coli (FkpA part)). Kind of assay: DAGS ECL; detection EcSkp-TpN17-Ru; competitor EcSlyD-VcLp15 0.1 ug/ml in R1.
For assay [7] the target is unchanged. Kind of assay: DAGS ECL; detection EcSkp-TpN17-Ru; EcSlyD-VcLp15 0 ug/ml in R1.
Assay [8] shares this target. Briefly: DAGS ECL; detection EcSkp-TpN17-Ru; competitor EcSkp-VcLp15 1.0 ug/ml in R1.
Assay [9] has the same target. Kind of assay: DAGS ECL; detection EcSkp-TpN17-Ru; EcSkp-VcLp15 0 ug/ml in R1.
Assay [10] has the same target. Kind of assay: DAGS ECL; detection EcSkp-TpN17-Ru; competitor EcSlyD-VcLp15 0.2 ug/ml in R1.
Assay [11] has the same target. Briefly: DAGS ECL; detection EcSkp-TpN17-Ru; competitor EcSlyD-VcLp15 0.3 ug/ml in R1.
The target is the same in assay [12]. Kind of assay: DAGS ECL; detection EcSkp-TpN17-Ru; competitor EcSkp-VcLp15 0.1 ug/ml in R1.
The target in assay [13] is EcSS-TpN17-Bi(DDS) (Treponema pallidum (TpN17 part); E. coli (SlyD part)). Kind of assay: DAGS ECL; detection PmSS-TpN17-Ru; EcSkp-VcLp15 0 ug/ml in R1.
Assay [14] has the same target. Kind of assay: DAGS ECL; detection PmSS-TpN17-Ru; competitor EcSkp-VcLp15 0.1 ug/ml in R1.
Assay [15] shares this target. Kind of assay: DAGS ECL; detection PmSS-TpN17-Ru; EcSlyD-VcLp15 0 ug/ml in R1.
The target is the same in assay [16]. Kind of assay: DAGS ECL; detection PmSS-TpN17-Ru; competitor EcSlyD-VcLp15 0.2 ug/ml in R1.
Assay [17] has the same target. Briefly: DAGS ECL; detection PmSS-TpN17-Ru; competitor EcSlyD-VcLp15 0.3 ug/ml in R1.
For assay [18], the target named is EcFkpA-TpN17-Bi(DDS) (Treponema pallidum (TpN17 part); E. coli (FkpA part)). Briefly: DAGS ECL; detection EcSkp-TpN17-Ru; competitor EcSlyD-VcLp15 1.0 ug/ml in R1.

For the substance Trina #0642, the counts was 632 counts in [1]; 613 counts in [2]; 698 counts in assay [3]; 610 counts in assay [4]; 623 counts in [5]; 716 counts in assay [6]. For the same substance, the counts is 778 counts in assay [7]; 744 counts in assay [8]; 750 counts in assay [9]; 722 counts in assay [10]; 698 counts in assay [11]; 757 counts in assay [12]. In addition, the counts turned out to be 673 counts in assay [13]; 673 counts in [14]; 657 counts in assay [15]; 638 counts in assay [16]; 626 counts in assay [17]; 661 counts in [18].

Regarding Trina #0646, the counts stood at 646 counts in [1]; 617 counts in assay [2]; 784 counts in [3]; 613 counts in [4]; 621 counts in [5]; 795 counts in assay [6]. For the same substance, the counts in assay [7] came out at 797 counts; in assay [8] it was 815 counts; in [9] it was 840 counts; in assay [10] it was 817 counts; in assay [11] it was 802 counts; in [12], 847 counts. The counts came out at 651 counts in [13]; 659 counts in [14]; 634 counts in assay [15]; 634 counts in assay [16]; 628 counts in [17]; 784 counts in assay [18].

Trina #0647: the counts in assay [2] amounted to 614 counts; in assay [3], 762 counts; in [4], 623 counts; in [5], 618 counts; in assay [6], 786 counts; in [7], 774 counts. The counts in [10] stood at 764 counts; in assay [11] it was 773 counts; in assay [15], 623 counts; in assay [16], 606 counts; in [17], 620 counts; in assay [18] it was 742 counts.
